Test results published in patent publication US20220363757A1.

molecular target: cynomolgus LAG-3 ECD human IgG1 Fc fusion (cynomolgus; human), P18627; experiment: SPR, Fab over captured LAG-3 ECD-Fc
Sequence (P18627 other isoform, or with tags, fused parts or gaps, form in doubt): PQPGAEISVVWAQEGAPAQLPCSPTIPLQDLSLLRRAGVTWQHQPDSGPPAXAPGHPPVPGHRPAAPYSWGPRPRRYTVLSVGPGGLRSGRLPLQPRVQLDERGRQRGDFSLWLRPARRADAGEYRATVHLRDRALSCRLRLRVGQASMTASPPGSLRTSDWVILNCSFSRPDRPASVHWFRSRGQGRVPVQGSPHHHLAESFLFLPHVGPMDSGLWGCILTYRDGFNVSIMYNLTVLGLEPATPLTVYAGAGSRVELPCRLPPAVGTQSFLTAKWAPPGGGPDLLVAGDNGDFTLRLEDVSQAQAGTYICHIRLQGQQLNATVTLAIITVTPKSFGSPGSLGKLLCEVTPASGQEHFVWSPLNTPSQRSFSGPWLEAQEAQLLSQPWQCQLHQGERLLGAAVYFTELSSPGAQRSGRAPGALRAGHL

Kd | koff | kon | Binder
68 nM | 0.0048 s⁻¹ | 71000 M⁻¹ s⁻¹ | Fab fragment of antibody 15532 (Fab, not shown: a dimerising Fc or GST) heavy: QVQLQQWGAGLLRPSETLSLTCAVYGESFSGYYWNWIRQPPGKGLEWIGEINHSGSTNYNPSLKSRVTISVDTSKTQFSLKLSSVTAADTAVYYCARGWDLLDWNDYWNEYWGQGTLVTVSS light: not shown
120 nM | 0.0068 s⁻¹ | 59000 M⁻¹ s⁻¹ | Fab fragment of antibody 15431 (Fab, not shown: a dimerising Fc or GST) heavy: QVQLQQSGPGLVKPSQTLSLTCAISGDSVSSNSAAWNWIRQSPSRGLEWLGRTYYRSKWYNDYAVSVKSRITINPDTSKNQFSLQLNSVTPEDTAVYYCARDDDWNDFDYWGQGTLVTVSS light: not shown
35 nM | 0.0025 s⁻¹ | 70000 M⁻¹ s⁻¹ | Fab fragment of antibody 15011 (Fab, not shown: a dimerising Fc or GST) heavy: EVQLLESGGGLVQPGGSLRLSCAASGFDFRSYAMMWVRQAPGKGLEWVGGINGEVGGSNTYYAPAVKGRATISRDNSKNTLYLQMNSLRAEDTAVYYCVKGAGACGICNDDIDAWGQGTLVTVSS light: SYELTQDPAVSVALGQTVRITCSGAGSYAGSYYYGWHQQKPGQAPVTVIYDNDKRPSNIPDRFSGSSSGNTASLTITGAQAEDEADYYCGSTNDNDDGGLFGSGTKVTVLGQPKANPTVTLFPPSSEELQANKATLVCLISDFYPGAVTVAWKADGSPVKAGVETTKPSKQSNNKYAASSYLSLTPEQWKSHRSYSCQVTHEGSTVEKTVAPTECS
